From FireProtDB
“And” between values parts separate entries of the source, which are not always exact repeats. Equal values may be shown once.

B1: Superoxide dismutase [Mn], mitochondrial, P04179 (parent)
chain: MLSRAVCGTSRQLAPVLGYLGSRQKHSLPDLPYDYGALEPHINAQIMQLHHSKHHAAYVNNLNVTEEKYQEALAKGDVTAQIALQPALKFNGGGHINHSIFWTNLSPNGGGEPKGELLEAIKRDFGSFDKFKEKLTAASVGVQGSGWGWLGFNKERGHLQIAACPNQDPLQGTTGLIPLLGIDVWEHAYYLQYKNVRPDYLKAIWNVINWENVTERYMACKK
B2: Citrate synthase, mitochondrial, P00889 (parent)
chain: MALLTAAARLFGAKNASCLVLAARHASASSTNLKDILADLIPKEQARIKTFRQQHGNTVVGQITVDMMYGGMRGMKGLVYETSVLDPDEGIRFRGYSIPECQKMLPKAKGGEEPLPEGLFWLLVTGQIPTEEQVSWLSKEWAKRAALPSHVVTMLDNFPTNLHPMSQLSAAITALNSESNFARAYAEGIHRTKYWELIYEDCMDLIAKLPCVAAKIYRNLYREGSSIGAIDSKLDWSHNFTNMLGYTDAQFTELMRLYLTIHSDHEGGNVSAHTSHLVGSALSDPYLSFAAAMNGLAGPLHGLANQEVLVWLTQLQKEVGKDVSDEKLRDYIWNTLNSGRVVPGYGHAVLRKTDPRYTCQREFALKHLPHDPMFKLVAQLYKIVPNVLLEQGKAKNPWPNVDAHSGVLLQYYGMTEMNYYTVLFGVSRALGVLAQLIWSRALGFPLERPKSMSTDGLIKLVDSK
B3: Serine proteinase inhibitor IA-1, Q7M4T6 (parent)
chain: SAGKFIVIFKNDVSEDKIRETKDEVIAEGGTITNEYNMPGMKGFAGELTPQSLTKFQGLQGDLIDSIEEDGIVTTQ
B4: Catalase-peroxidase 2, A4QUT2 (parent)
chain: MHASLSSWLLAASLLTQPISVSGQGCPFAKRDGTVDSSLPQKRADAPETTTFGRCAVKSNQAGGGTRSHDWWPCQLRLDVLRQFQPSQNPLGGDFDYAEAFQSLDYEAVKKDIAALMTESQDWWPADFGNYGGLFVRMAWHSAGTYRAMDGRGGGGMGQQRFAPLNSWPDNQNLDKARRLIWPIKQKYGNKISWADLMLLTGNVALENMGFKTLGFGGGRADTWQSDEAVYWGAETTFVPQGNDVRYNNSVDINARADKLEKPLAATHMGLIYVNPEGPNGTPDPAASAKDIREAFGRMGMNDTETVALIAGGHAFGKTHGAVKGSNIGPAPEAADLGMQGLGWHNSVGDGNGPNQMTSGLEVIWTKTPTKWSNGYLESLINNNWTLVESPAGAHQWEAVNGTVDYPDPFDKTKFRKATMLTSDLALINDPEYLKISQRWLEHPEELADAFAKAWFKLLHRDLGPTTRYLGPEVPKESFIWQDPLPAREGDLIDDADVDKLKAAILSTDGLDVSKLASTAMACATTYRNSDKRGGCNGARIALEPQRNWVSNNPTQLSAVLDALKKVQSDFNGSNGNKKVSLADLIVLGGTAAVEKAAKDAGVDIKVPFSAGRVDATQEQTDVTQFSYLEPQADGFRNYGRGTARARTEEIMVDKASQLTLTPPELTVLVGGMRALGANYDGSDVGVFTANKGKLTPDFFVNLVDMNIAWTASGADGESWVGTDRKSRSEKYKGSRADLVFGSHAELRAIAEVYAENGNQEKFVKDFVAAWTKVMNLDRFDLKVKK
B5: Cyclin-dependent kinase inhibitor 2A, P42771 (parent)
chain: MEPAAGSSMEPSADWLATAAARGRVEEVRALLEAGALPNAPNSYGRRPIQVMMMGSARVAELLLLHGAEPNCADPATLTRPVHDAAREGFLDTLVVLHRAGARLDVRDAWGRLPVDLAEELGHRDVARYLRAAAGGTRGSNHARIDAAEGPSDIPD
B6: Glypican-1, P35052 (parent)
chain: MELRARGWWLLCAAAALVACARGDPASKSRSCGEVRQIYGAKGFSLSDVPQAEISGEHLRICPQGYTCCTSEMEENLANRSHAELETALRDSSRVLQAMLATQLRSFDDHFQHLLNDSERTLQATFPGAFGELYTQNARAFRDLYSELRLYYRGANLHLEETLAEFWARLLERLFKQLHPQLLLPDDYLDCLGKQAEALRPFGEAPRELRLRATRAFVAARSFVQGLGVASDVVRKVAQVPLGPECSRAVMKLVYCAHCLGVPGARPCPDYCRNVLKGCLANQADLDAEWRNLLDSMVLITDKFWGTSGVESVIGSVHTWLAEAINALQDNRDTLTAKVIQGCGNPKVNPQGPGPEEKRRRGKLAPRERPPSGTLEKLVSEAKAQLRDVQDFWISLPGTLCSEKMALSTASDDRCWNGMARGRYLPEVMGDGLANQINNPEVEVDITKPDMTIRQQIMQLKIMTNRLRSAYNGNDVDFQDASDDGSGSGSGDGCLDDLCSRKVSRKSSSSRTPLTHALPGLSEQEGQKTSAASCPQPPTFLLPLLLFLALTVARPRWR
B7: Tryptophan synthase alpha chain, P0A877 (parent)
chain: MERYESLFAQLKERKEGAFVPFVTLGDPGIEQSLKIIDTLIEAGADALELGIPFSDPLADGPTIQNATLRAFAAGVTPAQCFEMLALIRQKHPTIPIGLLMYANLVFNKGIDEFYAQCEKVGVDSVLVADVPVEESAPFRQAALRHNVAPIFICPPNADDDLLRQIASYGRGYTYLLSRAGVTGAENRAALPLNHLVAKLKEYNAAPPLQGFGISAPDQVKAAIDAGAAGAISGSAIVKIIEQHINEPEKMLAALKVFVQPMKAATRS
B8: Alpha-amylase, P29957 (parent)
chain: MKLNKIITTAGLSLGLLLPSIATATPTTFVHLFEWNWQDVAQECEQYLGPKGYAAVQVSPPNEHITGSQWWTRYQPVSYELQSRGGNRAQFIDMVNRCSAAGVDIYVDTLINHMAAGSGTGTAGNSFGNKSFPIYSPQDFHESCTINNSDYGNDRYRVQNCELVGLADLDTASNYVQNTIAAYINDLQAIGVKGFRFDASKHVAASDIQSLMAKVNGSPVVFQEVIDQGGEAVGASEYLSTGLVTEFKYSTELGNTFRNGSLAWLSNFGEGWGFMPSSSAVVFVDNHDNQRGHGGAGNVITFEDGRLYDLANVFMLAYPYGYPKVMSSYDFHGDTDAGGPNVPVHNNGNLECFASNWKCEHRWSYIAGGVDFRNNTADNWAVTNWWDNTNNQISFGRGSSGHMAINKEDSTLTATVQTDMASGQYCNVLKGELSADAKSCSGEVITVNSDGTINLNIGAWDAMAIHKNAKLNTSSASSTESDWQRTVIFINAQTQSGQDMFIRGGIDHAYANANLGRNCQTSNFECAMPIRHNNLKNVTTSPWKANDNYLDWYGIENGQSSEAEGSATDWTTNVWPAGWGAEKTVNTDGFGVTPLNIWGEHYWMLDVDMDCSKAVNGWFELKAFIKNGQGWETAIAQDNAPYTSTNHMAQCGKINKFEFNNSGVVIRSF
B9: Beta-crystallin B2, P02522 (parent)
chain: MASDHQTQAGKPQPLNPKIIIFEQENFQGHSHELNGPCPNLKETGVEKAGSVLVQAGPWVGYEQANCKGEQFVFEKGEYPRWDSWTSSRRTDSLSSLRPIKVDSQEHKITLYENPNFTGKKMEVIDDDVPSFHAHGYQEKVSSVRVQSGTWVGYQYPGYRGLQYLLEKGDYKDSGDFGAPQPQVQSVRRIRDMQWHQRGAFHPSS
B10: Lactose operon repressor, P03023 (parent)
chain: MKPVTLYDVAEYAGVSYQTVSRVVNQASHVSAKTREKVEAAMAELNYIPNRVAQQLAGKQSLLIGVATSSLALHAPSQIVAAIKSRADQLGASVVVSMVERSGVEACKAAVHNLLAQRVSGLIINYPLDDQDAIAVEAACTNVPALFLDVSDQTPINSIIFSHEDGTRLGVEHLVALGHQQIALLAGPLSSVSARLRLAGWHKYLTRNQIQPIAEREGDWSAMSGFQQTMQMLNEGIVPTAMLVANDQMALGAMRAITESGLRVGADISVVGYDDTEDSSCYIPPLTTIKQDFRLLGQTSVDRLLQLSQGQAVKGNQLLPVSLVKRKTTLAPNTQTASPRALADSLMQLARQVSRLESGQ

Variants of: B1
Details: Homo sapiens; pH 7.8; 70 °C; Thermal; DSC; Potassium phosphate 2 mM; reversible: yes; structure 1N0J; whole UniProt chain shown

Variant	ddG of mutation (higher = less stable)
I82T	2.7 kcal/mol

Same assay, conditions: Homo sapiens; pH 7.8; Thermal; DSC; Potassium phosphate 2 mM; reversible: yes; structure 1N0J; whole UniProt chain shown

Variant	Tm	change of melting temperature, mutant - wild type (higher = more stable)	unfolding enthalpy (calorimetric)
I82T	56.4 °C	-13.6 °C	64.9 kcal/mol

Variants of: B2
Details: Sus scrofa; pH 7.5; Thermal; CD; Tris-HCl 5.0 mM; reversible: yes; structure 1CTS; whole UniProt chain shown

Variant	Tm	change of melting temperature, mutant - wild type (higher = more stable)
H301G	56 °C	-1.9 °C
H301R	56.8 °C	-1.1 °C
D402G	62.5 °C	4.6 °C
D402Q	69 °C	11.1 °C

Variants of: B3
Details: Pleurotus ostreatus; pH 7; Thermal; CD; sodium phosphate 50 mM; whole UniProt chain shown

Variant	Tm	change of melting temperature, mutant - wild type (higher = more stable)
F56A	46 °C	-13 °C

Variants of: B4
Details: Pyricularia oryzae (strain 70-15 / ATCC MYA-4617 / FGSC 8958); pH 7; Thermal; DSC; Phosphate buffer 5 mM; transition: 2; structure 5JHZ; whole UniProt chain shown

Variant	Tm
W140F	44.8 °C
Y273F	43.6 °C
M299A	48.2 °C

Variants of: B5
Details: Homo sapiens; pH 7.5; 25 °C; Urea; CD; Sodium phosphate 15 mM; NaCl 100 mM; reversible: yes; structure 1A5E; whole UniProt chain shown

Variant	denaturant m value	denaturant midpoint (higher = more stable)
D74N	1.2 kcal/mol/M	1.4 M
P81L	1.1 kcal/mol/M	3.4 M
D84N	2 kcal/mol/M	1.8 M

Variants of: B6
Details: Homo sapiens; pH 7; 20 °C; Urea; CD; Sodium Phosphate Buffer; transition: 2; structure 4ACR; whole UniProt chain shown

Variant	denaturant midpoint (higher = more stable)
N79Q N116Q	5.37 M

Same assay, conditions: Homo sapiens; pH 7.4; Thermal; CD; Sodium Phosphate Buffer; reversible: no; structure 4ACR; whole UniProt chain shown

Variant	Tm	change of melting temperature, mutant - wild type (higher = more stable)
N79Q N116Q	66 °C	-3 °C
N79Q	66 °C	0 °C

Variants of: B7
Details: Escherichia coli (strain K12); pH 7; 25 °C; Thermal; DSC; tetra-borate 1 mM; reversible: yes(70-95%); structure 1WQ5; whole UniProt chain shown

Variant	unfolding enthalpy (calorimetric)	unfolding free energy
E49Q	23.2 kcal/mol	7.4 kcal/mol

Same assay, conditions: Escherichia coli (strain K12); pH 7; 25.8 °C; GdnHCl; CD; Potassium phosphate 0.01 M; reversible: yes; structure 1WQ5; whole UniProt chain shown

Variant	ddG of mutation (higher = less stable)	unfolding free energy
E49Q	2.5 kcal/mol	6.3 kcal/mol
E49M	-4.6 kcal/mol	13.4 kcal/mol

Same assay, conditions: Escherichia coli (strain K12); pH 7; Thermal; DSC; tetra-borate 1 mM; reversible: yes(70-95%); structure 1WQ5; whole UniProt chain shown

Variant	Tm	heat capacity change of unfolding
E49Q	59.4 °C	2.87 kcal/mol/K

Same assay, conditions: Escherichia coli (strain K12); pH 7.2; 25 °C; Thermal; CD; tetra-borate 1 mM; reversible: yes(70-95%); structure 1WQ5; whole UniProt chain shown

Variant	unfolding free energy
E49Q	6.1 kcal/mol

Same assay, conditions: Escherichia coli (strain K12); pH 7.2; Thermal; CD; tetra-borate 1 mM; reversible: yes(70-95%); structure 1WQ5; whole UniProt chain shown

Variant	Tm	heat capacity change of unfolding	unfolding enthalpy (van 't Hoff)
E49Q	59.6 °C	2.68 kcal/mol/K	14.3 kcal/mol

Same assay, conditions: Escherichia coli (strain K12); pH 9.3; Thermal; CD; tetra-borate 1 mM; reversible: yes(70-95%); structure 1WQ5; whole UniProt chain shown

Variant	Tm	heat capacity change of unfolding	unfolding enthalpy (van 't Hoff)
E49Q	59.6 °C	2.68 kcal/mol/K	14.3 kcal/mol

Same assay, conditions: Escherichia coli (strain K12); pH 9.3; Thermal; DSC; tetra-borate 1 mM; reversible: yes(70-95%); structure 1WQ5; whole UniProt chain shown

Variant	Tm	heat capacity change of unfolding
E49Q	62.4 °C	2.87 kcal/mol/K

Same assay, conditions: Escherichia coli (strain K12); pH 7.8; 25 °C; Urea; Fluorescence; Potassium phosphate 10 mM; reversible: yes; structure 1WQ5; whole UniProt chain shown

Variant	unfolding free energy
F258W	7 kcal/mol

Same assay, conditions: Escherichia coli (strain K12); pH 7.8; 25 °C; Urea; Fluorescence; Potassium phosphate 10 mM; transition: 3; reversible: yes; structure 1WQ5; whole UniProt chain shown

Variant	unfolding free energy
F139W	5.6 kcal/mol and 4.9 kcal/mol

Same assay, conditions: Escherichia coli (strain K12); pH 9; Thermal; DSC; Sodium tetraborate 1 mM; reversible: yes(>70%); structure 1WQ5; whole UniProt chain shown

Variant	Tm	change of melting temperature, mutant - wild type (higher = more stable)
K109N	52.5 °C	-1.5 °C

Variants of: B8
Details: Pseudoalteromonas haloplanktis; pH 7.2; Thermal; DSC; MOPS 30 mM; NaCl 50 mM; reversible: yes; structure 1AQH; whole UniProt chain shown

Variant	Tm	change of melting temperature, mutant - wild type (higher = more stable)	unfolding enthalpy (calorimetric)
Q82C A123C	40 °C	-4 °C	78 kcal/mol

Same assay, conditions: Pseudoalteromonas haloplanktis; pH 7.2; Thermal; DSC; Mops 30 mM; NaCl 50 mM; reversible: yes; structure 1AQH; whole UniProt chain shown

Variant	Tm	change of melting temperature, mutant - wild type (higher = more stable)	unfolding enthalpy (calorimetric)
K324R N174D V220F Q188I T256V	51.8 °C	7.8 °C	277 kcal/mol

Variants of: B9
Details: Bos taurus; pH 7.2; Thermal; fluorescence; sodium phospahte 20 mM; NaCl; transition: 2; structure 2BB2; whole UniProt chain shown

Variant	Tm	change of melting temperature, mutant - wild type (higher = more stable)
W59C	46.8 °C	-10 °C

Variants of: B10
Details: Escherichia coli (strain K12); pH 7.4; Thermal; CD; phosphate 5 mM; reversible: no; structure 1LBI; whole UniProt chain shown

Variant	Tm
K84L	93 °C
K84M	93 °C

Same assay, conditions: Escherichia coli (strain K12); pH 7.5; Urea; CD; Tris-HCl 0.01 M; K2SO4 0.1 M; reversible: yes (90%); structure 1LBI; whole UniProt chain shown

Variant	unfolding free energy
Y282D	4.8 kcal/mol
